The target in test [1] is Alexa Fluor 488-labelled BRC4 peptide (human). Description: fluorescence polarisation; direct binding; 10 nM Alexa Fluor 488-labelled BRC4 peptide constant, protein titrated; 25 °C, 100 mM Tris (pH 7.5), 200 mM KCl, 1.25% glycerol; single-site fit.
Test [2] addresses unlabelled BRC4 repeat (E. coli-produced). Description: DSF (thermal shift). Conditions: read off a plot.
Test [3] has as its target RadA oligomerisation peptide. Briefly: DSF (thermal shift). As to conditions: read off a plot.
For test [4], the target named is ATP-Mg2+. Briefly: DSF (thermal shift). Conditions: read off a plot.
In test [5] the target is HumRadA33 (Pyrococcus furiosus) (UniProt O74036). Description: ITC; 25 °C; peptide titrated into protein; 50 mM Tris–HCl (pH 8.5), 250 mM NaCl, 5 mM MgCl2; single-site model.
The target in test [6] is HumRadA1 (first humanised RadA protein) (Pyrococcus furiosus) (UniProt O74036). Briefly: ITC; 25 °C; peptide titrated into protein; single-site model; the buffer for HumRadA1 is not listed.
In test [7] the target is HumRadA2 (Pyrococcus furiosus) (UniProt O74036). Briefly: ITC; 25 °C; peptide titrated into protein; 50 mM Tris–HCl (pH 7.5), 150 mM NaCl, 5 mM MgCl2; single-site model.
For test [8], the target named is ChimRAD51 (archeal human chimeric RadA/RAD51/RadA protein) (Pyrococcus furiosus | human) (UniProt O74036). Description: ITC; 25 °C; ChimRAD51 dialysed against 20 mM K/phosphate (pH 8.0) and 192 mM KCl.

“ChimRAD51 (archeal human chimeric RadA/RAD51/RadA protein) (from UniProt O74036 108-165; Q06609 156-261; O74036 278-349)” came in with a Kd in test [1] of 4 nM.
Consider “PfRadA monomeric C-terminal ATPase domain (from residue 108, L2 loop deleted) I169M; Y201A; V202Y; E219S; D220A; K221M”, for which the other: ΔT (DSF thermal shift on ligand addition) in test [2] was 0.3 °C.
Regarding “PfRadA monomeric C-terminal ATPase domain (from residue 108, L2 loop deleted) I169M; Y201A; V202Y; L213Q; V215L; Q216Y; E219S; D220A; K221M; D267M; L274E; Y275F”, the other: ΔT (DSF thermal shift on ligand addition) in test [3] stood at 2.7 °C; in test [2], 0.15 °C; in test [4], 6.1 °C.
As for RAD51 oligomerisation peptide, the dissociation constant (Kd) in test [5] worked out at 800 nM; in test [6], 24000 nM.
Consider RadA oligomerisation peptide, for which the Kd is 3400 nM in test [7], 14000 nM in test [5] and 1800 nM in test [6].
“unlabelled BRC4 repeat (E. coli-produced) (peptide)” registered a stoichiometry N in test [8] of 1. Moreover, the dissociation constant Kd in test [5] stood at 33 nM.
